Biological target: calcium/calmodulin dependent protein kinase IIα (UniProt Q9UQM7)
Sequence of UniProt Q9UQM7 (Q9UQM7 whole entry): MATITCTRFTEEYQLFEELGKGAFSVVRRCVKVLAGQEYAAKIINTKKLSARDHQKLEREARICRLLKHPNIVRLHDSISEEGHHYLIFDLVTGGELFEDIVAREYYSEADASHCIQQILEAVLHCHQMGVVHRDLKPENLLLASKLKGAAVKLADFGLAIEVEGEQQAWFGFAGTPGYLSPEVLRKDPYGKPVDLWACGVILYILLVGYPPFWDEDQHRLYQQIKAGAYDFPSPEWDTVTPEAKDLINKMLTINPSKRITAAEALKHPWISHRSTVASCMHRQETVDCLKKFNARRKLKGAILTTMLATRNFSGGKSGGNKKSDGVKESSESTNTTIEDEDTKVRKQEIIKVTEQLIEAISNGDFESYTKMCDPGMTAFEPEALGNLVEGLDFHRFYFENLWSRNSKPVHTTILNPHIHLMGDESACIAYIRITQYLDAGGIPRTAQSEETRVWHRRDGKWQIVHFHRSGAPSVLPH

Row | Substance | half maximal activation of CaMKIIα (phosphorylation of syntide-2, HPLC), calmodulin 10^-9 to 10^-6 M, 0.5 mM calcium chloride, 37° [nM]
1 | wild type calmodulin (recombinant, human) (from UniProt P0DP23 1-149) (natural protein) | 64
2 | MetO77 calmodulin (from UniProt P0DP23 1-149) (natural protein) | 129

Source: article PMC6210676
